B1: corin: N567Q (protein)
parent chain: MKQSPALAPEERCRRAGSPKPVLRADDNNMGNGCSQKLATANLLRFLLLVLIPCICALVLLLVILLSYVGTLQKVYFKSNGSEPLVTDGEIQGSDVILTNTIYNQSTVVSTAHPDQHVPAWTTDASLPGDQSHRNTSACMNITHSQCQMLPYHATLTPLLSVVRNMEMEKFLKFFTYLHRLSCYQHIMLFGCTLAFPECIIDGDDSHGLLPCRSFCEAAKEGCESVLGMVNYSWPDFLRCSQFRNQTESSNVSRICFSPQQENGKQLLCGRGENFLCASGICIPGKLQCNGYNDCDDWSDEAHCNCSENLFHCHTGKCLNYSLVCDGYDDCGDLSDEQNCDCNPTTEHRCGDGRCIAMEWVCDGDHDCVDKSDEVNCSCHSQGLVECRNGQCIPSTFQCDGDEDCKDGSDEENCSVIQTSCQEGDQRCLYNPCLDSCGGSSLCDPNNSLNNCSQCEPITLELCMNLPYNSTSYPNYFGHRTQKEASISWESSLFPALVQTNCYKYLMFFSCTILVPKCDVNTGEHIPPCRALCEHSKERCESVLGIVGLQWPEDTDCSQFPEENSDNQTCLMPDEYVEECSPSHFKCRSGQCVLASRRCDGQADCDDDSDEENCGCKERDLWECPSNKQCLKHTVICDGFPDCPDYMDEKNCSFCQDDELECANHACVSRDLWCDGEADCSDSSDEWDCVTLSINVNSSSFLMVHRAATEHHVCADGWQEILSQLACKQMGLGEPSVTKLIQEQEKEPRWLTLHSNWESLNGTTLHELLVNGQSCESRSKISLLCTKQDCGRRPAARMNKRILGGRTSRPGRWPWQCSLQSEPSGHICGCVLIAKKWVLTVAHCFEGRENAAVWKVVLGINNLDHPSVFMQTRFVKTIILHPRYSRAVVDYDISIVELSEDISETGYVRPVCLPNPEQWLEPDTYCYITGWGHMGNKMPFKLQEGEVRIISLEHCQSYFDMKTITTRMICAGYESGTVDSCMGDSGGPLVCEKPGGRWTLFGLTSWGSVCFSKVLGPGVYSNVSYFVEWIKRQIYIQTFLLN
B2: corin: N761Q (protein)
parent chain: B1 parent chain
B3: corin: N697Q (protein)
parent chain: B1 parent chain
B4: corin: N1022Q (protein)
parent chain: B1 parent chain
B5: corin: N651Q (protein)
parent chain: B1 parent chain

experiment: immunostaining, confocal microscopy, FBL/FTotal ratio in polarized MDCK cells; settings: glycan lost; control: corin WT

localisation_or_trafficking, no change:
B1
B2
B3
B4
B5

Reference: article PMC7605860
